The values below come from paper PMC10127613 (mBio, 2023).

Data set [1] deals with T1, Clr (Sinorhizobium meliloti, UniProt Q92SD2).
T1 construct: gene SMc02175
Put plainly: isothermal titration calorimetry. It is filed as binding. (In ITC the heat of successive injections is recorded.)

For data set [2], the target named is Sinorhizobium meliloti Clr, C-terminally His6-tagged (Sinorhizobium meliloti). Nature of the data set: SEC; apo-Clr in solution (no cNMP, no DNA); dimer to monomers. Background: In gel filtration, larger molecules generally elute earlier.
The target is the same in data set [3]. Put plainly: crystal structure; Clr (0.25 or 0.44 mM) with 25 mM cAMP or cGMP, 25 mM MgCl2 and 1.25-fold excess of 19-mer/14-mer duplex CBS-DNA; sitting-drop vapor diffusion, 291 K (cAMP) or 281 K (cGMP).
Data set [4] concerns the target T2, Clr (Sinorhizobium meliloti, UniProt Q92SD2 1-234).
T2 sequence: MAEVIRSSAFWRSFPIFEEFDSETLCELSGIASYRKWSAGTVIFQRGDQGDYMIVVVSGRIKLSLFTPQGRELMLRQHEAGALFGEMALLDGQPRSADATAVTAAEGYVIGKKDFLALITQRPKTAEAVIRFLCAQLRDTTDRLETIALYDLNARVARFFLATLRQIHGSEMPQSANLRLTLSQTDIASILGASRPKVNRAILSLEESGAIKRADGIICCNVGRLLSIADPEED
Put plainly: ITC; 1 mM cAMP; EMSA: 2 mM HEPES pH 7.0, 30 mM NaCl, 50 mM KCl, 850 ng salmon sperm DNA, 1 ug BSA, 20 ng Cy3-DNA, 3 ug Clr in 10 uL, 1 mM cAMP, room temperature. ITC: 20 mM HEPES, 300 mM NaCl, 20 mM MgCl2, pH 7.0, 25 C. The following applies: protein: recombinant; tags: C-terminal His6 (pET36b, NdeI/XhoI); chain copies: 2; two copies of each strand; duplex arms joined by palindromic 5' overhang CTAG (4 nt) of the 19-mer, 1 nt 3' overhang G; nicked.

The term Kd denotes the free concentration of one partner at which half of the binding sites on the other are occupied at equilibrium, for simple one-to-one binding. The molecule `Nc1nc2c(ncn2[C@@H]2O[C@@H]3COP(=O)(O)O[C@H]3[C@H]2O)c(=O)[nH]1` [cGMP] yielded a dissociation constant (Kd) in data set [1] of 23.8 ± 14.5 µM.
As a reminder, the stoichiometry N is a count of units in the complex or per binding partner. In data set [2], “Sinorhizobium meliloti Clr, C-terminally His6-tagged” came in with a percent in the monomeric state of 86% and a stoichiometry N of 2.
With “Sinorhizobium meliloti Clr, C-terminally His6-tagged (natural protein)”, in data set [3], the stoichiometry N came to 2.

B1: CBS-DNA, two identical 19-mer/14-mer duplexes joined by palindromic CTAG sticky ends (nicked 33-nt) (dsDNA)
DNA 1: CTAGGTAACATTACTCGCG
DNA 2: GCGAGTAATGTTAC
DNA 3: CTAGGTAACATTACTCGCG
DNA 4: GCGAGTAATGTTAC
For the molecule B1, the Kd in data set [4] was 6 ± 4.7 µM.
